What was measured:
[1] = tested on: PNA-peptide chimera I
[2] = tested on: PNA-Caspase 3 dual-labeled peptide chimera: PNA-Linker-Cys His His His His His His Asp Glu Val Asp Ala Lys-(C18-spacer)-Cy3
[3] = tested on: PNA-peptide chimera III
[4] = tested on: PNA-peptide chimera II
[5] = tested on: biotinylated Caspase 3 peptide substrate with end-labeled fluorescent dye Cy5

Row | Substance | percentage of the residual assay intensity ratio relative to the negative control [1] | fluorescent Cy3/Cy5 signal ratio (Caspase 3 at 0 to 4 ng/µl) [2] | percentage of the residual assay intensity ratio relative to the negative control [3] | percentage of the residual assay intensity ratio relative to the negative control [4] | Cy5 signal intensity at 1000 ms integration of uncut substrate (Caspase 3 at 8 to 0 microgram/ml) [5]
1 | Caspase 3 | 53.48% | the fluorescent Cy3/Cy5 signal ratio decreases from approximately 1 to 0.6 | 112.03% | 82.35% | The Cy5 signal intensity at 1000 ms integration increased from about 2600 to 5200 units for a decreasing Caspase 3 concentration ranging from 8 to 0 microgram/ml
2 | Caspase 6 | 91.80% |  | 79.08% | 41.18% | 
3 | Caspase 8 | 73.77% |  | 59.89% | 69.41% | 

— patent US20040038217
